Molecular target: human IL-12 receptor (b1 and b2 chain) (human, UniProt P42701 24-662; Q99665 24-862)
Experiment: cell-based or functional assay

human IL-12 receptor (b1 and b2 chain), sequence (Q99665 24-862, chain 2 of 2, other chains not shown): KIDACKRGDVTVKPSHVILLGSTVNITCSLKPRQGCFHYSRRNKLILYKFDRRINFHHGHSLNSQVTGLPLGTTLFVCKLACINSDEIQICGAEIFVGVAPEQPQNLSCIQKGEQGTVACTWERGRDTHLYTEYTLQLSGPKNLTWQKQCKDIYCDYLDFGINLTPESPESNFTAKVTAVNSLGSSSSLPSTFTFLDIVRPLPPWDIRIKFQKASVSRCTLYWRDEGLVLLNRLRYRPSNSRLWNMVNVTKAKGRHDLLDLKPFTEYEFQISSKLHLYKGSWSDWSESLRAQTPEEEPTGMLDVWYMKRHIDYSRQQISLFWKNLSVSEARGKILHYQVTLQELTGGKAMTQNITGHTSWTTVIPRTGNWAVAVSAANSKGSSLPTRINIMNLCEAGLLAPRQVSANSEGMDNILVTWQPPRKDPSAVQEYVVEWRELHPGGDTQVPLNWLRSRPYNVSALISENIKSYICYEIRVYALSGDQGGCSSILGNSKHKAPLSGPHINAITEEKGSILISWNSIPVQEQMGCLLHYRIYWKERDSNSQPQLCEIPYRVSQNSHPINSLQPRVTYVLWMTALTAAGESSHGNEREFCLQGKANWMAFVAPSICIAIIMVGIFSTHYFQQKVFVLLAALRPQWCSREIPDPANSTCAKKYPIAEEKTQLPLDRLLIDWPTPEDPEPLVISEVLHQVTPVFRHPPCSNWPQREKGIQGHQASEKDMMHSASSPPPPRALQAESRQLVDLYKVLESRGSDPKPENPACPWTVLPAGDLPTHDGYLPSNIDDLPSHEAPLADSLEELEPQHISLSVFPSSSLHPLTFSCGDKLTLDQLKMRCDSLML

EC50 of p-STAT4 induction in human PBMC, CD4+ T cells: 2.52 nM | EC50 of p-STAT4 induction in human PBMC, CD8+ T cells: 2.09 nM | EC50 of p-STAT4 induction in human PBMC, NK cells: 3.75 nM | fold decrease in cytokine releasing assay with human PBMC, activity relative to IL-12: ~1000 times
B1: ASKG129C (Fc fusion)
chain 1: QVQLVQSGVEVKKPGASVKVSCKASGYTFTNYYMYWVRQAPGQGLEWMGGINPSNGGTNFNEKFKNRVTLTTDSSTTTAYMELKSLQFDDTAVYYCARRDYRFDMGFDYWGQGTTVTVSSASTKGPSVFPLAPSSKSTSGGTAALGCLVKDYFPEPVTVSWNSGALTSGVHTFPAVLQSSGLYSLSSVVTVPSSSLGTQTYICNVNHKPSNTKVDKKAEPKSCDKTHTCPPCPAPEAAGAPSVFLFPPKPKDTLYITREPEVTCVVVDVSHEDPEVKFNWYVDGVEVHNAKTKPREEQYNSTYRVVSVLTVLHQDWLNGKEYKCKVSNKALPAPIEKTISKAKGQPREPQVYTLPPSREEMTKNQVSLTCLVKGFYPSDIAVEWESNGQPENNYKTTPPVLDSDGSFFLYSKLTVDKSRWQQGNVFSCSVMHEALHNHYTQKSLSLSPGGGGSGGGGSAAGGGGSGGGGSDIQMTQSPSSLSASVGDRVTITCRASQGISSWLAWYQQKPEKAPKSLIYAASSLQSGVPSRFSGSGSGTDFTLTISSLQPEDFATYYCQQYNIYPYTFGQGTKLEIKSGGGGSGGGGSGGGGSEVQLVQSGAEVKKPGESLKISCKGSGYSFTTYWLGWVRQMPGKGLDWIGIMSPVDSDIRYSPSFQGQVTMSVDKSITTAYLQWNSLKASDTAMYYCARRRPGQGYFDFWGQGTLVTVSS
chain 2: EVQLVESGGGLVQPGGSLRLSCAASGYTVSSYCMGWFRQAPGKGREGVSAIDSDGSVSYADSVKGRFTISKDNSKNTLYLQMNSLRAEDTAVYFCAADLCWVDQDQGEYNTWGQGTLVTVSSGSEPKSSDKTHTCPPCPAPEAAGGPSVFLFPPKPKDTLYITREPEVTCVVVDVSHEDPEVKFNWYVDGVEVHNAKTKPREEQYNSTYRVVSVLTVLHQDWLNGKEYKCKVSNKALPAPIEKTISKAKGQPREPQVYTLPPSREEMTKNQVSLTCLVKGFYPSDIAVEWESNGQPENNYKTTPPVLDSDGSFFLYSKLTVDKSRWQQGNVFSCSVMHEALHNHYTQKSLSLSPGGGGSGGGGSAAGGGGSGGGGSDIQMTQSPSSLSASVGDRVTITCRASQGISSWLAWYQQKPEKAPKSLIYAASSLQSGVPSRFSGSGSGTDFTLTISSLQPEDFATYYCQQYNIYPYTFGQGTKLEIKSGGGGSGGGGSGGGGSEVQLVQSGAEVKKPGESLKISCKGSGYSFTTYWLGWVRQMPGKGLDWIGIMSPVDSDIRYSPSFQGQVTMSVDKSITTAYLQWNSLKASDTAMYYCARRRPGQGYFDFWGQGTLVTVSS
